Source: the supplement of paper PMC7877785
± gives the uncertainty stated by the source.

Test: self-splicing fitness, log relative to wild type (ln ratio); higher = more splicing; Tetrahymena group I intron in knt gene, E. coli kanamycin selection, DiMSum; sequences stand for … in CUCUCU…GGAGGGAAAAGUUAUCAGGCAUGCACCUGGUAGCUAGUCUUUAAACCAAUAGAUUGCAUCGGUUUAAAAGGCAAGACCGUCAAAUUGCGGGAAAGGGGUCAACAGCCGUUCAGUACCAAGUCUCAGGGGAAACUUUGAGAUGGCCUUGCAAAGGGUAUGGUAAUAAGCUGACGGACAUGGUCCUAACCACGCAGCCAAGUCCUAAGUCAACAGAUCUUCUGUUGAUAUGGAUGCAGUUCACAGACUAAAUGUCGGUCGGGGAAGAUGUAUUCUUCUCAUAAGAUAUAGUCGGACCUCUCCUUAAUGGGAGCUAGCGGAUGAAGUGAUGCAACACUGGAGCCGCUGGGAACUAAUUUGUAUGCGAAAGUAUAUUGAUUAGUUUUGGAGUACUCGUGGUCG
In short: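 Fitness was computed with DiMSum as the error-weighted combination of replicate fold changes, kanamycin versus none, each normalised to wild type. The library randomised all eight intron nucleotides of the P1ex region, with the intron placed in the knt kanamycin-resistance gene on pET-22b(+) in E. coli BL21(DE3). Six replicate transformations were grown overnight at 37°C or 30°C on LB agar with or without 25 μg/mL kanamycin, plus 100 μg/mL carbenicillin, 50 μM IPTG and 0.2% rhamnose. Pooled colonies were amplicon-sequenced on an Illumina HiSeq 2500.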

Sequence	self-splicing fitness (ln) (30 °C)	self-splicing fitness (ln) (37 °C)
AGCUAGCAAUAUUACGAGUG	-0.877 ± 0.066	-0.529 ± 0.084
AGCUAGCAAUAUUACGAUAA	-2.14 ± 0.12	-1.12 ± 0.14
AGCUAGCAAUAUUACGCCUA	-0.93 ± 0.14	-0.324 ± 0.13
AGCUAGCAAUAUUACGCCUG	-1.6 ± 0.13	-1.55 ± 0.17
AGCUAGCAAUAUUACGCUAU	-2.89 ± 0.21	-1.42 ± 0.18
AGCUAGCAAUAUUACGCUGG	-3.58 ± 0.2	-2.31 ± 0.3
AGCUAGCAAUAUUACGCUUG	-3.96 ± 0.26	-2.9 ± 0.25
AGCUAGCAAUAUUACGGAAU	-1.13 ± 0.16	-2.07 ± 0.27
AGCUAGCAAUAUUACGGAGA	-2.24 ± 0.22	-3.14 ± 0.37
AGCUAGCAAUAUUACGGAUC	-1.26 ± 0.12	-1.54 ± 0.16
AGCUAGCAAUAUUACGGCAU	-0.602 ± 0.11	-0.476 ± 0.14
AGCUAGCAAUAUUACGGCCG	-0.198 ± 0.15	0.841 ± 0.19
AGCUAGCAAUAUUACGGGCA	-0.728 ± 0.12	-0.379 ± 0.14
AGCUAGCAAUAUUACGGGGA	-2.22 ± 0.17	-1.68 ± 0.14
AGCUAGCAAUAUUACGGUAA	-2.34 ± 0.26	-1.53 ± 0.26
AGCUAGCAAUAUUACGGUCA	-0.312 ± 0.067	0.192 ± 0.083
AGCUAGCAAUAUUACGGUCG	-0.942 ± 0.072	0.371 ± 0.1
AGCUAGCAAUAUUACGUAAU	-3.29 ± 0.16	-0.924 ± 0.11
AGCUAGCAAUAUUACGUCAG	-3.09 ± 0.18	-2.84 ± 0.22
AGCUAGCAAUAUUACGUGAA	-1.58 ± 0.13	-1.05 ± 0.15
AGGAAGCAAUAUUACGAAAG	-2.44 ± 0.23	-1.19 ± 0.35
AGGAAGCAAUAUUACGACUG	-0.619 ± 0.094	0.0357 ± 0.1
AGGAAGCAAUAUUACGAGCC	-2.25 ± 0.23	-1.32 ± 0.27
AGGAAGCAAUAUUACGAGGG	-3.63 ± 0.26	-3.07 ± 0.29
AGGAAGCAAUAUUACGCAUC	–	-1.85 ± 0.41

Sequence	self-splicing fitness (ln) (30 °C)	self-splicing fitness (ln) (37 °C)
AGGAAGCAAUAUUACGCCGU	-1.28 ± 0.24	-0.629 ± 0.33
AGGAAGCAAUAUUACGCCUU	-2.67 ± 0.2	-0.955 ± 0.18
AGGAAGCAAUAUUACGCGAA	-1.83 ± 0.12	-1.38 ± 0.14
AGGAAGCAAUAUUACGCUUG	-2.64 ± 0.14	-0.302 ± 0.11
AGGAAGCAAUAUUACGGGAC	-3.5 ± 0.46	-1.67 ± 0.23
AGGAAGCAAUAUUACGGGAU	-2.75 ± 0.19	-2.06 ± 0.18
AGGAAGCAAUAUUACGGGGU	-3.19 ± 0.21	-3.13 ± 0.43
AGGAAGCAAUAUUACGGUAA	-2.47 ± 0.2	-2.26 ± 0.18
AGGAAGCAAUAUUACGGUAU	-2.52 ± 0.28	-0.707 ± 0.24
AGGAAGCAAUAUUACGUAUU	-3.54 ± 0.24	-0.582 ± 0.15
AGGAAGCAAUAUUACGUCAA	-3.36 ± 0.22	-3.71 ± 0.27
AGGAAGCAAUAUUACGUUCG	-0.643 ± 0.071	-0.266 ± 0.11
AGGCAGCAAUAUUACGAAGU	-2.32 ± 0.1	-0.471 ± 0.098
AGGCAGCAAUAUUACGAAUU	-1.29 ± 0.064	-1.4 ± 0.093
AGGCAGCAAUAUUACGACUG	-1.99 ± 0.14	-2.18 ± 0.18
AGGCAGCAAUAUUACGACUU	-0.0645 ± 0.048	0.187 ± 0.065
AGGCAGCAAUAUUACGAGAU	-3.01 ± 0.15	-2.26 ± 0.2
AGGCAGCAAUAUUACGAGCU	-0.501 ± 0.1	-0.299 ± 0.13
AGGCAGCAAUAUUACGAGGA	-3.31 ± 0.28	-2.55 ± 0.26
AGGCAGCAAUAUUACGAGUA	-1.94 ± 0.15	-1.65 ± 0.14
AGGCAGCAAUAUUACGAUGA	-1.23 ± 0.13	0.113 ± 0.14
AGGCAGCAAUAUUACGCAGC	-4.21 ± 0.42	-2.84 ± 0.31
AGGCAGCAAUAUUACGCAGG	-1.39 ± 0.084	-1.17 ± 0.1
AGGCAGCAAUAUUACGCCAC	-3.45 ± 0.18	-2.48 ± 0.3
AGGCAGCAAUAUUACGCGAU	-4.3 ± 0.42	-1.93 ± 0.21

Sequence	self-splicing fitness (ln) (30 °C)	self-splicing fitness (ln) (37 °C)
AGGCAGCAAUAUUACGCUCU	-2.31 ± 0.34	–
AGGCAGCAAUAUUACGGCUG	-2.3 ± 0.35	–
AGGCAGCAAUAUUACGUCAG	-1.92 ± 0.12	-0.461 ± 0.12
AGGCAGCAAUAUUACGUGCA	-1.01 ± 0.1	-0.142 ± 0.14
AGGCAGCAAUAUUACGUGCG	-0.971 ± 0.082	-0.24 ± 0.11
AGGGAGCAAUAUUACGACAA	-3.29 ± 0.29	-3.44 ± 0.42
AGGGAGCAAUAUUACGAGCA	-3.26 ± 0.25	-2.64 ± 0.21
AGGGAGCAAUAUUACGAGGU	-2.64 ± 0.17	-3.55 ± 0.31
AGGGAGCAAUAUUACGAUUC	-3.76 ± 0.35	-2.41 ± 0.29
AGGGAGCAAUAUUACGCGGU	-3.98 ± 0.21	-3.05 ± 0.24
AGGGAGCAAUAUUACGCGUC	-3.15 ± 0.29	-2.51 ± 0.37
AGGGAGCAAUAUUACGGCAU	-3.2 ± 0.2	-2.46 ± 0.23
AGGGAGCAAUAUUACGGCCA	-2.33 ± 0.33	-0.91 ± 0.31
AGGGAGCAAUAUUACGGCGA	-3.35 ± 0.4	-2.62 ± 0.44
AGGGAGCAAUAUUACGGCUC	-2.18 ± 0.24	–
AGGGAGCAAUAUUACGGGAG	-3.56 ± 0.2	-2.13 ± 0.23
AGGGAGCAAUAUUACGGUAU	–	-0.384 ± 0.39
AGGGAGCAAUAUUACGUAUC	-2.16 ± 0.25	–
AGGGAGCAAUAUUACGUAUU	-2.96 ± 0.18	-2.15 ± 0.21
AGGGAGCAAUAUUACGUCUC	-1.79 ± 0.32	-2.54 ± 0.48
AGGGAGCAAUAUUACGUUCA	-1.31 ± 0.18	-1.49 ± 0.19
AGGGAGCAAUAUUACGUUUU	-2.81 ± 0.21	-2.22 ± 0.27
AGGUAGCAAUAUUACGAAAA	-2.61 ± 0.031	-2.01 ± 0.041
AGGUAGCAAUAUUACGAAAU	-2.048 ± 0.018	-1.19 ± 0.035
AGGUAGCAAUAUUACGAACU	0.0152 ± 0.016	0.016 ± 0.034

Sequence	self-splicing fitness (ln) (30 °C)	self-splicing fitness (ln) (37 °C)
AGGUAGCAAUAUUACGAAGC	-3.821 ± 0.036	-2.3 ± 0.042
AGGUAGCAAUAUUACGAAUG	-3.277 ± 0.026	-1.83 ± 0.037
AGGUAGCAAUAUUACGAGAC	-3.88 ± 0.039	-2.69 ± 0.044
AGGUAGCAAUAUUACGAUAA	-1.65 ± 0.018	-0.626 ± 0.035
AGGUAGCAAUAUUACGCAAU	-1.959 ± 0.017	-1.03 ± 0.034
AGGUAGCAAUAUUACGCAGU	-2.979 ± 0.021	-1.68 ± 0.035
AGGUAGCAAUAUUACGCCAC	-3.97 ± 0.058	-2.98 ± 0.069
AGGUAGCAAUAUUACGCCCU	-3.56 ± 0.048	-2.45 ± 0.058
AGGUAGCAAUAUUACGCGGA	-2.062 ± 0.019	-1.09 ± 0.033
AGGUAGCAAUAUUACGCUGA	-2.032 ± 0.019	-1.14 ± 0.034
AGGUAGCAAUAUUACGCUGU	-3.789 ± 0.033	-2.97 ± 0.043
AGGUAGCAAUAUUACGCUUA	-1.2 ± 0.017	-0.467 ± 0.034
AGGUAGCAAUAUUACGGAGA	-3.57 ± 0.037	-2.82 ± 0.043
AGGUAGCAAUAUUACGGAGC	-4.047 ± 0.034	-2.5 ± 0.04
AGGUAGCAAUAUUACGGAGU	-3.487 ± 0.021	-1.72 ± 0.034
AGGUAGCAAUAUUACGGGAA	-2.69 ± 0.027	-2.11 ± 0.038
AGGUAGCAAUAUUACGGGUA	-2.347 ± 0.022	-1.31 ± 0.034
AGGUAGCAAUAUUACGGUAA	-2.123 ± 0.021	-1.2 ± 0.034
AGGUAGCAAUAUUACGGUGC	-3.382 ± 0.029	-1.98 ± 0.038
AGGUAGCAAUAUUACGGUGG	-3.787 ± 0.027	-2.8 ± 0.04
AGGUAGCAAUAUUACGGUUC	-2.769 ± 0.022	-1.51 ± 0.036
AGGUAGCAAUAUUACGUCAG	-2.334 ± 0.019	-1.42 ± 0.035
